Reference: patent US20250171505A1 (CENTRE NATIONAL DE LA RECHERCHE SCIENTIFIQUE CNRS, published 2025)

T1: VSV Gth, soluble form of the ectodomain of G (amino acid residues 1-422, generated by thermolysine l (vesicular stomatitis virus, Indiana …, UniProt P03522 17-438))
T1 sequence: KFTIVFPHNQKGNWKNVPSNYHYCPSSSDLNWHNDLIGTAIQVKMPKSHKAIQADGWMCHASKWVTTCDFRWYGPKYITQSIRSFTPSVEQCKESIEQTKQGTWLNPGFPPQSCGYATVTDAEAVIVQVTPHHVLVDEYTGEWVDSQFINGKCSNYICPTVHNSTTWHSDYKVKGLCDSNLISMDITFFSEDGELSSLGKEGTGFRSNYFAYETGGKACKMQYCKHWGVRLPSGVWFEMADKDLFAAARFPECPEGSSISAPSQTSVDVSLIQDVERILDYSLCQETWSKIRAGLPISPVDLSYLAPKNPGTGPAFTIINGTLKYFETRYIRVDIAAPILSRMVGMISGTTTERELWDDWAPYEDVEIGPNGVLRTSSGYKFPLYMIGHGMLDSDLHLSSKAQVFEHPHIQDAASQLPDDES

B1: CR3 monovalent domain of human LDL-R (isolated, GST removed) (receptor)
chain: not shown
notes: domain: CR3
B2: CR1 monovalent domain of human LDL-R (isolated, GST removed) (receptor)
chain: not shown
notes: domain: CR1
B3: CR2 monovalent domain of human LDL-R (isolated, GST removed) (receptor)
chain: not shown
notes: domain: CR2

Columns and labels:
[1] = target: T1, VSV Gth, soluble form of the ectodomain …; assay: ITC at 20 C, pH 8.0, CR domain injected into Gth
[2] = target: T1, VSV Gth, soluble form of the ectodomain …
[3] = target: T1, VSV Gth, soluble form of the ectodomain …; assay: ITC at 20 C, pH 8.0

Row | Binder | stoichiometry [1] | Kd [2] [µM] | binding result [3]
1 | B1 | 1 | 4.3 | –
2 | B2 | – | – | no binding
3 | B3 | 1 | 7.3 | –
